Tests used:
mouse FcRn [1] = biological target: T1, mouse FcRn (mouse, UniProt Q61559 22-297; P01887 21-119)
T1 sequence (looked up) 1: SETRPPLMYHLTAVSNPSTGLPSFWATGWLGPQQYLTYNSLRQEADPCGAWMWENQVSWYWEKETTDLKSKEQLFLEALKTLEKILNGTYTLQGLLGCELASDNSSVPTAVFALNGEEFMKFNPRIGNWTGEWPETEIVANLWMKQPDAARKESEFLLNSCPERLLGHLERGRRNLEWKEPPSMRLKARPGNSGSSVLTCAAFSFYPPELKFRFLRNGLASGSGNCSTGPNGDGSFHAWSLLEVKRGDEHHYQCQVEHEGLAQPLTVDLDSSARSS
T1 sequence (looked up) 2: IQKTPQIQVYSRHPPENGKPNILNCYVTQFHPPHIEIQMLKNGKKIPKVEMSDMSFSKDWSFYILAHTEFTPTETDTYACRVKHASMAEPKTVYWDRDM

mouse FcRn [2] = biological target: T1, mouse FcRn; assay: pH 5.6

B1: mouse surrogate Multabody (HD37, mouse ferritin), LALAP Fc (other, not shown: a dimerising Fc or GST; large carriers; small tags and cut ends)
chain 1: KPCPPCKCPAPNAAGGPSVFIFPPKIKDVLMISLSPIVTCVVVDVSEDDPDVQISWFVNNVEVHTAQTQTHREDYNSTLRVVSALPIQHQDWMSGKEFKCKVNNKDLGAPIERTISKPKGSVRAPQVYVLPPPEEEMTKKQVTLTCMVTDFMPEDIYVEWTNNGKTELNYKNTEPVLDSDGSYFMYSKLRVEKKNWVERNSYSCSVVHEGLHNHHTTKSFSRTPGKGGSSGSGSGSTGTSSSGTGTSAGTTGTSASTSGSGSGGGGGSGGGGSAGGTATAGASSGSGSSGSSSSGGTGKPCPPCKCPAPNAAGGPSVFIFPPKIKDVLMISLSPIVTCVVVDVSEDDPDVQISWFVNNVEVHTAQTQTHREDYNSTLRVVSALPIQHQDWMSGKEFKCKVNNKDLGAPIERTISKPKGSVRAPQVYVLPPPEEEMTKKQVTLTCMVTDFMPEDIYVEWTNNGKTELNYKNTEPVLDSDGSYFMYSKLRVEKKNWVERNSYSCSVVHEGLHNHHTTKSFSRTPGKSRASTASSASSGGGGGGSGGSGGSGGSMTSQIRQNYSTEVEAAVNRLVNLHLRASYTYLSLGFFFDRDDVALEGVGHFFRELAEEKREGAERLLEFQNDRGGRALFQDVQKPSQDEWGKTQEAMEAALAMEKNLNQALLDLHALGSARTDPHLCDFLESHYLDKEVKLIKKMGNHLTNLRRVAGPQPAQTGAPQGSLGEYLFERLTLKHD
chain 2: MTSQIRQNYSTEVEAAVNRLVNLHLRASYTYLSLGFFFDRDDVALEGVGHFFRELAEEKREGAERLLEFQNDRGGRALFQDVQKPSQDEWGKTQEAMEAALAMEKNLNQALLDLHALGSARTDPHLCDFLESHYLDKEVKLIKKMGNHLTNLRRVAGPQPAQTGAPQGSLGEYLFERLTLKHD
notes: also called mLALAP MB; Fc-modified MB (LALAP mutation)
kon (mouse FcRn [1]): 2.4e+06 M⁻¹ s⁻¹ | Kd (mouse FcRn [2]): < 1 pM | koff (mouse FcRn [2]): < 1e-07 s⁻¹
